Source: the supplement of paper PMC9732359
± gives the uncertainty stated by the source.

Assay: protein stability index of a GFP-peptide fusion (yeast GPS) (PSI 1-4); higher = more stable; sorted into four equal gates, so the index is relative within each strain
Method in brief: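 Tiled yeast protein peptides of 17 residues were each joined downstream of GFP, on plasmids that also express Cherry. The pooled library was maintained in yeast, and mid-log cultures in leucine-free medium were sorted into four equal gates on the GFP/Cherry ratio. Plasmids from every gate were amplified by PCR and sequenced on Illumina, with barcodes linking reads to strains. The protein stability index of a peptide is its gate-number-weighted read frequency summed over the gates.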

Sequence	protein stability index (doa10∆)	protein stability index (pdr5∆)	protein stability index (san1∆)	protein stability index (ubr1∆)
TAAANTEKLSNGFSFTK [YOR098C/NUP1]	2.81 ± 0.079	2.48 ± 0.057	2.56 ± 0.065	2.46 ± 0.044
KVIDLDTKLKAHELQSE [YIL149C/MLP2]	2.55 ± 0.055	2.73 ± 0.053	2.58 ± 0.059	2.69 ± 0.042
KYFTESDIPVSENVFEG [SSN3]	3.06 ± 0.11	3.25 ± 0.098	3.1 ± 0.094	3.06 ± 0.073
AMFAALQQKQQQRFQAL [SWI1]	1.36 ± 0.051	1.62 ± 0.053	1.3 ± 0.12	1.62 ± 0.038
QPSSSRYNGGNDNIGAN [SMB1]	3.2 ± 0.091	3.49 ± 0.08	3.23 ± 0.049	3.37 ± 0.075
EILEHICYDVNDWQMLE [RPB2]	2.84 ± 0.12	3.02 ± 0.086	2.74 ± 0.08	2.98 ± 0.081
VLLTFLQDELHKVSSQS [YCS4]	3.54 ± 0.17	3.45 ± 0.2	2.95 ± 0.23	3.27 ± 0.13
GTQLATLKNRGLPLGIA [YGR119C/NUP57]	2.04 ± 0.067	2.29 ± 0.059	2.57 ± 0.1	2.23 ± 0.031
EDHMLKKIENTMLENIT [RPO21]	2.73 ± 0.1	2.78 ± 0.086	2.92 ± 0.077	2.85 ± 0.083
NQEDLFELVHHFFQIDG [YML103C/NUP188]	2.97 ± 0.079	3.04 ± 0.065	2.85 ± 0.081	2.68 ± 0.051
LNSMPNNVNEYSYTTIV [YJL039C/NUP192]	2.69 ± 0.085	2.95 ± 0.092	2.75 ± 0.075	2.6 ± 0.058
TTLVTRREELQQRIREI [SMC3]	3.06 ± 0.2	–	–	–
LPGTNNNSNSNNNSSNE [SEC65]	2.93 ± 0.051	2.69 ± 0.054	2.89 ± 0.042	2.8 ± 0.049
GSLALLKLSMADYNGAL [POP4]	2.33 ± 0.046	2.67 ± 0.058	2.48 ± 0.054	2.38 ± 0.037
EREIMNDHSKSANPKKT [SWI3]	3.29 ± 0.077	3.3 ± 0.084	3.3 ± 0.16	3.31 ± 0.065
FQQIQYENKQLYFPDDY [POP1]	2.92 ± 0.11	2.5 ± 0.083	2.78 ± 0.12	2.73 ± 0.086
MEGQKLDDPVLNAIVSK [YJR042W/NUP85]	3.27 ± 0.19	3.2 ± 0.2	–	3.21 ± 0.17
QEGIEAIATTVIAHLTV [RET1]	1.86 ± 0.057	1.93 ± 0.05	1.84 ± 0.059	2.01 ± 0.033
TKDPDEQQLFEIFAFGN [CSN9]	3.18 ± 0.13	3.09 ± 0.088	3.17 ± 0.052	2.83 ± 0.053
RSSEEINSDNQNIILRS [RPN3]	3.03 ± 0.26	3.24 ± 0.19	–	3.2 ± 0.19
IVKNAEQHNLVKKGPVR [RPS20]	2.84 ± 0.058	3.13 ± 0.066	2.9 ± 0.072	2.95 ± 0.078
SDDAAQFMKRFPMPYEN [ECM29]	2.96 ± 0.068	3 ± 0.14	2.9 ± 0.082	–
VTDDDRLWLKKVMEEEE [POP8]	1.43 ± 0.066	1.89 ± 0.07	1.57 ± 0.089	2.07 ± 0.07
ERIINVGVIGPLHSGKT [SNU114]	2.87 ± 0.12	2.57 ± 0.11	–	2.94 ± 0.09
TAKPAFSFGAKPAEKNN [YJL041W/NSP1]	3.19 ± 0.11	3.35 ± 0.12	3.19 ± 0.11	3.4 ± 0.15

Sequence	protein stability index (doa10∆)	protein stability index (pdr5∆)	protein stability index (san1∆)	protein stability index (ubr1∆)
FKLQEEERERKDQYVPE [RPS17A]	3.14 ± 0.14	3.38 ± 0.091	3.4 ± 0.061	3.24 ± 0.093
NLANEQPVLEKPLKKGS [SIR4]	2.31 ± 0.18	2.83 ± 0.093	3.08 ± 0.13	2.32 ± 0.089
VFIFPTSNWEIYKPLLF [SRB8]	2.15 ± 0.06	2.6 ± 0.083	2.84 ± 0.062	2.74 ± 0.056
FQDVYDLTGSEPIKEII [FAS1]	2.78 ± 0.25	3.02 ± 0.081	–	3.22 ± 0.1
TGPKQQEITTNLENHFK [SCL1]	2.94 ± 0.044	2.97 ± 0.037	3.04 ± 0.032	2.9 ± 0.03
IDVLLEQTTGGNNKDLK [RPB4]	–	3.68 ± 0.27	–	3.5 ± 0.079
TATIINNESSDDMDIDE [PCI8]	3.1 ± 0.097	3.17 ± 0.07	3.02 ± 0.095	3.31 ± 0.056
PAINYTKLKNAVQNESV [QCR2]	1.9 ± 0.064	1.79 ± 0.059	2.2 ± 0.092	1.54 ± 0.048
AVKYGLNHVVALIENKK [RPL8A]	2.26 ± 0.19	2.48 ± 0.12	–	2.45 ± 0.067
EVAKRLVELMFIRSTNS [FAS1]	1.79 ± 0.067	2.14 ± 0.069	2.5 ± 0.085	1.49 ± 0.042
FAKQVDVQLERVADEDA [IRR1]	3.15 ± 0.15	3.13 ± 0.29	2.76 ± 0.26	–
TQQSHEQQPEQPQETEE [RPT4]	2.9 ± 0.056	3.16 ± 0.058	2.99 ± 0.056	2.98 ± 0.047
KIELIKNNLLIPDLSIQ [RPN12]	2.75 ± 0.055	2.23 ± 0.042	2.66 ± 0.046	2.06 ± 0.036
QDEVNKGPAIDELSSKE [NNF1]	3.23 ± 0.061	3.36 ± 0.081	3.34 ± 0.077	3.24 ± 0.057
LQNNINNSNNNNIIRIQ [SNF11]	2.94 ± 0.089	2.57 ± 0.13	2.87 ± 0.069	3.32 ± 0.089
ATSTKVSVEGVNVEKFN [RPL6A]	2.88 ± 0.11	3.4 ± 0.11	3.31 ± 0.059	3.16 ± 0.1
SKDEPVSKAVESKSLLN [SIR4]	2.39 ± 0.097	2.82 ± 0.091	1.37 ± 0.12	1.86 ± 0.097
ENIIIVGGTTSISGFKE [ARP9]	2.13 ± 0.092	2.2 ± 0.06	2.64 ± 0.07	2.88 ± 0.054
SFTPSTVPNINFSGLNG [YOR098C/NUP1]	2.59 ± 0.066	2.68 ± 0.068	2.83 ± 0.056	2.97 ± 0.05
YRAFGSIWQVKDQLPDL [MED7]	3.08 ± 0.13	3.17 ± 0.086	2.94 ± 0.09	3.29 ± 0.083
STAFQNTPLSLPTRGTL [COR1]	2.27 ± 0.05	2.38 ± 0.038	1.97 ± 0.05	2.59 ± 0.035
IVSKSIEMYVQEASKQY [RPN2]	2.53 ± 0.087	2.98 ± 0.1	1.54 ± 0.088	2.68 ± 0.1
PQVKIREASKDNVDFIL [RPB3]	2.55 ± 0.065	2.12 ± 0.033	2.88 ± 0.073	1.77 ± 0.037
QMIDTSILPTRDDLFVR [NUT1]	2.86 ± 0.06	2.88 ± 0.062	2.73 ± 0.08	2.33 ± 0.044
